Where a name gives a salt, the structure may show the parent alone. Starred links: 1 amine or outer side, 2 acyl side, 3 side chain; linkers in the order of their positions; H or OH if unused. Positions of bridges follow the written chain, without caps; N, C: chain ends. Non-standard residues stand in square brackets, D forms with d. Residues, ends and D or L forms follow the SMILES beside them. Chains are numbered I, II in the order given. *: point of attachment. TATA = O=C(CC[*:1])N1CN(C(=O)CC[*:2])CN(C(=O)CC[*:3])C1; Dolaproine = CO[C@@H]([C@@H]1CCCN1)[C@@H](C)C(=O)O; Dil = CC[C@H](C)[C@H](NC)[C@@H](CC(=O)O)OC; X2 = O=C(CCCC(=O)[*:2])NCCC(=O)[*:1]; PABC = O=C(OCc1ccc(N[*:1])cc1)[*:2]; X1 = C[C@@H](N*)[C@@H](O)c1ccccc1; Hyp = O=C(O)[C@@H]1C[C@@H](O)CN1; hArg = N=C(N)NCCCC[C@H](N)C(=O)O; Cit = NC(=O)NCCC[C@H](N)C(=O)O; Pen = CC(C)(S)[C@H](N)C(=O)O; NMeV = CN[C@H](C(=O)O)C(C)C; Sar = CNCC(=O)O
Assay: Metabolic stability in hepatocytes
Type: in vitro ADME, Cynomolgus macaques
Settings: Cynomolgus macaque hepatocytes, 1 μM, 0.5×10^6 cells/mL
Method: To investigate the metabolic stability of the compounds of the present invention in hepatocytes from Cynomolgus macaques and humans.
Incubations were performed in 96-well plates using an external extraction method. Several 96-well sample precipitation plates, designated T0, T15, T30, T60, T90, T0-MC, T90-MC, and blank matrix, were prepared, respectively. The recovery culture medium and incubation culture medium were removed in advance and placed in a 37° C. water bath for preheating. Frozen hepatocytes from Cynomolgus macaques and humans were removed from a liquid nitrogen tank, recovered, and diluted to 0.51×10^6 cells/mL with the incubation culture medium. […]
At the end of the incubation at the corresponding time point, the incubation plates were removed, from which 25 μL of a compound mixture with the cells was removed and added to sample plates containing 125 μL of stop buffer. […] All samples were mixed uniformly and then analyzed by the LC-MS/MS method.
The concentration of the compound of the present invention in the sample was semi-quantitatively determined by the liquid chromatography-tandem mass spectrometry (LC-MS/MS) method without a standard curve and quality control sample. […]

`CC[C@H](C)[C@@H]([C@@H](CC(=O)N1CCC[C@H]1[C@H](OC)[C@@H](C)C(=O)N[C@H](C)[C@@H](O)c1ccccc1)OC)N(C)C(=O)[C@@H](NC(=O)[C@H](C(C)C)N(C)C(=O)OCc1ccc(NC(=O)[C@H](CCCNC(N)=O)NC(=O)[C@@H](NC(=O)CCCC(=O)NCCC(=O)N(C)CC(=O)N(C)CC(=O)N(C)CC(=O)N(C)CC(=O)N(C)CC(=O)N(C)CC(=O)N(C)CC(=O)N(C)CC(=O)N(C)CC(=O)N(C)CC(=O)N[C@H]2CCCCNC(=O)C[C@@H](C(=O)N[C@H]3CSCCC(=O)N4CN5CN(C4)C(=O)CCSC(C)(C)[C@@H](C(N)=O)NC(=O)[C@H](CCCCNC(=N)N)NC(=O)[C@H](Cc4c[nH]c6ccccc46)NC(=O)[C@@H](CC(=O)O)NC(=O)[C@@H]4CCCN4C(=O)[C@H](Cc4c[nH]cn4)NC(=O)[C@H](CC(C)C)NC(=O)[C@H](CSCCC5=O)NC(=O)[C@H](CC(C)C)NC(=O)[C@@H]4CCCN4C(=O)[C@H](CC(N)=O)NC(=O)[C@H](C(C)C)NC(=O)[C@H](CC(C)C)NC(=O)[C@@H]4C[C@@H](O)CN4C3=O)NC(=O)[C@H](CCCCNC(=N)N)NC2=O)C(C)C)cc1)C(C)C` [Acetate salt of PDC_8] (I: [Sar][Sar][Sar][Sar][Sar][Sar][Sar][Sar][Sar][Sar]K[hArg]DC[Hyp]LVNPLCLHP[dD]W[hArg][Pen]-NH2 / II: V[Cit][PABC][NMeV]V[Dil][Dolaproine]-X1; lactam I:11-I:13; linker I:14-I:21-I:28 via TATA; linker I:N-II:N via X2) showed a half-life of over 3.61 h and a CLint scaled (read-out: CLint (liver)) of under 23 mL/min/kg.

— patent US20250121076A1, “POLYPEPTIDE DRUG CONJUGATE HAVING NOVEL STRUCTURE AND APPLICATION THEREOF” (MEDSHINE DISCOVERY INC., priority 2021, published 2025)
